According to patent US20140213531A1 (POLYPHOR, published 2014):
Bridges are numbered along the chain shown (N, C = ends). [ ]: non-standard residue; d: D form. Nle = CCCC[C@H](N)C(=O)O

T1: Chymase, from human skin (human, UniProt P23946 22-247)
T1 construct: purified natural enzyme, bought
T1 sequence (looked up): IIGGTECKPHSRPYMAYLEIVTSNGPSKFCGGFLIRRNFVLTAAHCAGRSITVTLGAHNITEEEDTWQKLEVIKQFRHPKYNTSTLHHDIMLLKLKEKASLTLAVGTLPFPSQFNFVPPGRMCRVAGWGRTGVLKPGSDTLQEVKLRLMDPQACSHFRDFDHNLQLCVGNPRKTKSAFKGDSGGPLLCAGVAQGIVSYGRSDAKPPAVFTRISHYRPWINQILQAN


Legend:
Experiment in all cases: enzyme inhibition, pNA substrate
Chymase, from human skin = target: T1, Chymase, from human skin
[1] = target: T2, Coagulation Factor Xa, from uman plasma (human, UniProt P00742 41-179; P00742 235-488, limits assumed)
T2 construct: purified natural enzyme, bought; also called FXa

[2] = target: T3, Trypsin, Iodination grade, from human pancreas (human, UniProt P07477 24-247)
T3 construct: purified natural enzyme, bought

[3] = target: Thrombin, from Human Plasma, high activity (human, UniProt P00734 328-622)
[4] = target: T4, Tryptase, from human lung (human, UniProt Q15661 31-275, limits assumed)
T4 construct: purified natural enzyme, bought

[5] = target: T5, Chymotrypsin, from human pancreas (human, UniProt P17538 19-263)
T5 construct: purified natural enzyme, bought
T5 sequence (P17538 19-263): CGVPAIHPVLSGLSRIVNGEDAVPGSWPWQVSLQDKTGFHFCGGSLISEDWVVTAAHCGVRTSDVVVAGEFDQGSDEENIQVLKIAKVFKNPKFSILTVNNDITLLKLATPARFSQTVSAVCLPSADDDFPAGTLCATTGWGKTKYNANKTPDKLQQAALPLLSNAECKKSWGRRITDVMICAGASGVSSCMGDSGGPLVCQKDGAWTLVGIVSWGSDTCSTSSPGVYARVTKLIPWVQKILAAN

T2 sequence (P00742 41-179 limits assumed, chain 1 of 2): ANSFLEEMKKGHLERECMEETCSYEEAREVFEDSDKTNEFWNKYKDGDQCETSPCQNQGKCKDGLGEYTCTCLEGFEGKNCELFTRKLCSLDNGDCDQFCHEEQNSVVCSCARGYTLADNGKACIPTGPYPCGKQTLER
T2 sequence (P00742 235-488 limits assumed, chain 2 of 2): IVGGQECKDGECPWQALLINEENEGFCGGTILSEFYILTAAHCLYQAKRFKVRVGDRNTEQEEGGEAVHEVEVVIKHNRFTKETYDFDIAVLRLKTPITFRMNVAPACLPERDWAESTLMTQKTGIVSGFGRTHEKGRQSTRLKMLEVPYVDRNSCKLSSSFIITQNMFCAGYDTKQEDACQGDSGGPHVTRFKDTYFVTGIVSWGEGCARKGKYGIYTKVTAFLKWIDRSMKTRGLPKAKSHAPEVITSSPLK
T4 sequence (Q15661 31-275 limits assumed): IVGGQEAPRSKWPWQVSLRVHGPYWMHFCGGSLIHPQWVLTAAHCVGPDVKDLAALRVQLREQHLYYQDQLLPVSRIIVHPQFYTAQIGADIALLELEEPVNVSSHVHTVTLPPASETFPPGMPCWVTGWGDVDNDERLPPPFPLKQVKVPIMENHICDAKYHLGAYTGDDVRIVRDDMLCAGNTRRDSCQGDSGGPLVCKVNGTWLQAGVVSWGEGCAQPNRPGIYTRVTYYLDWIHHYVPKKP

Binder	% inhibition at 100 µM (Chymase, from human skin)	% inhibition at 100 µM [1]	% inhibition at 100 µM [2]	% inhibition at 100 µM [3]	% inhibition at 100 µM [4]	% inhibition at 100 µM [5]
XCTASIPPQCY (HELM PEPTIDE1{[Nle].C.T.A.S.I.P.P.Q.C.Y.[dP].Q}$PEPTIDE1,PEPTIDE1,2:R3-10:R3|PEPTIDE1,PEPTIDE1,1:R1-13:R2$$$V2.0; SMILES CCCC[C@@H]1NC(=O)[C@H](CCC(N)=O)NC(=O)[C@H]2CCCN2C(=O)[C@H](Cc2ccc(O)cc2)NC(=O)[C@@H]2CSSC[C@H](NC1=O)C(=O)N[C@@H]([C@@H](C)O)C(=O)N[C@@H](C)C(=O)N[C@@H](CO)C(=O)N[C@@H]([C@@H](C)CC)C(=O)N1CCC[C@H]1C(=O)N1CCC[C@H]1C(=O)N[C@@H](CCC(N)=O)C(=O)N2, also called Ex. 123) [Example 123]	0%	0%				
XCTASXPPQCY (HELM PEPTIDE1{[Nle].C.T.A.S.[CC(C)(C)C[C@H](N[*:1])C(=O)[*:2]].P.P.Q.C.Y.[dP].P}$PEPTIDE1,PEPTIDE1,2:R3-10:R3|PEPTIDE1,PEPTIDE1,1:R1-13:R2$$$V2.0; SMILES CCCC[C@@H]1NC(=O)[C@@H]2CCCN2C(=O)[C@H]2CCCN2C(=O)[C@H](Cc2ccc(O)cc2)NC(=O)[C@@H]2CSSC[C@H](NC1=O)C(=O)N[C@@H]([C@@H](C)O)C(=O)N[C@@H](C)C(=O)N[C@@H](CO)C(=O)N[C@@H](CC(C)(C)C)C(=O)N1CCC[C@H]1C(=O)N1CCC[C@H]1C(=O)N[C@@H](CCC(N)=O)C(=O)N2, also called Ex. 85) [Example 85]		25.6%	0%	12.6%		
XCTASIPPQCY (HELM PEPTIDE1{[CCCCCCCC[C@H](N[*:1])C(=O)[*:2]].C.T.A.S.I.P.P.Q.C.Y.[dP].P}$PEPTIDE1,PEPTIDE1,2:R3-10:R3|PEPTIDE1,PEPTIDE1,1:R1-13:R2$$$V2.0; SMILES CCCCCCCC[C@@H]1NC(=O)[C@@H]2CCCN2C(=O)[C@H]2CCCN2C(=O)[C@H](Cc2ccc(O)cc2)NC(=O)[C@@H]2CSSC[C@H](NC1=O)C(=O)N[C@@H]([C@@H](C)O)C(=O)N[C@@H](C)C(=O)N[C@@H](CO)C(=O)N[C@@H]([C@@H](C)CC)C(=O)N1CCC[C@H]1C(=O)N1CCC[C@H]1C(=O)N[C@@H](CCC(N)=O)C(=O)N2) [Example 102]	0%	0%	0%		0%	
cyclo([Nle]CTASIPPQCY[dF]P) (disulfide 2-10) [Example 116]			0%			
XCTASIPPQCF (HELM PEPTIDE1{[Nle].C.T.A.S.I.P.P.Q.C.F.[dP].P}$PEPTIDE1,PEPTIDE1,2:R3-10:R3|PEPTIDE1,PEPTIDE1,1:R1-13:R2$$$V2.0; SMILES CCCC[C@@H]1NC(=O)[C@@H]2CCCN2C(=O)[C@H]2CCCN2C(=O)[C@H](Cc2ccccc2)NC(=O)[C@@H]2CSSC[C@H](NC1=O)C(=O)N[C@@H]([C@@H](C)O)C(=O)N[C@@H](C)C(=O)N[C@@H](CO)C(=O)N[C@@H]([C@@H](C)CC)C(=O)N1CCC[C@H]1C(=O)N1CCC[C@H]1C(=O)N[C@@H](CCC(N)=O)C(=O)N2, also called Ex. 90) [Example 90]	0%			0%		
XCTASIPPQCF (HELM PEPTIDE1{[Nle].C.T.A.S.I.P.P.Q.C.F.[dP].P}$PEPTIDE1,PEPTIDE1,2:R3-10:R3|PEPTIDE1,PEPTIDE1,1:R1-13:R2$$$V2.0; SMILES CCCC[C@@H]1NC(=O)[C@@H]2CCCN2C(=O)[C@H]2CCCN2C(=O)[C@H](Cc2ccccc2)NC(=O)[C@@H]2CSSC[C@H](NC1=O)C(=O)N[C@@H]([C@@H](C)O)C(=O)N[C@@H](C)C(=O)N[C@@H](CO)C(=O)N[C@@H]([C@@H](C)CC)C(=O)N1CCC[C@H]1C(=O)N1CCC[C@H]1C(=O)N[C@@H](CCC(N)=O)C(=O)N2, also called Ex. 137) [Example 137]	0%			0%		68.7%
XCTASIPPQCQ (HELM PEPTIDE1{[Nle].C.T.A.S.I.P.P.Q.C.Q.[dP].P}$PEPTIDE1,PEPTIDE1,2:R3-10:R3|PEPTIDE1,PEPTIDE1,1:R1-13:R2$$$V2.0; SMILES CCCC[C@@H]1NC(=O)[C@@H]2CCCN2C(=O)[C@H]2CCCN2C(=O)[C@H](CCC(N)=O)NC(=O)[C@@H]2CSSC[C@H](NC1=O)C(=O)N[C@@H]([C@@H](C)O)C(=O)N[C@@H](C)C(=O)N[C@@H](CO)C(=O)N[C@@H]([C@@H](C)CC)C(=O)N1CCC[C@H]1C(=O)N1CCC[C@H]1C(=O)N[C@@H](CCC(N)=O)C(=O)N2) [Example 131]			0%			
XCTASIPPQCY (HELM PEPTIDE1{[Nle].C.T.A.S.I.P.P.Q.C.Y.[dP].V}$PEPTIDE1,PEPTIDE1,2:R3-10:R3|PEPTIDE1,PEPTIDE1,1:R1-13:R2$$$V2.0; SMILES CCCC[C@@H]1NC(=O)[C@H](C(C)C)NC(=O)[C@H]2CCCN2C(=O)[C@H](Cc2ccc(O)cc2)NC(=O)[C@@H]2CSSC[C@H](NC1=O)C(=O)N[C@@H]([C@@H](C)O)C(=O)N[C@@H](C)C(=O)N[C@@H](CO)C(=O)N[C@@H]([C@@H](C)CC)C(=O)N1CCC[C@H]1C(=O)N1CCC[C@H]1C(=O)N[C@@H](CCC(N)=O)C(=O)N2) [Example 125]		0%	28.3%	0%		
XCTASIPPQCX (HELM PEPTIDE1{[Nle].C.T.A.S.I.P.P.Q.C.[O=C([C@H](Cc1ccccc1Cl)N[*:1])[*:2]].[dP].P}$PEPTIDE1,PEPTIDE1,2:R3-10:R3|PEPTIDE1,PEPTIDE1,1:R1-13:R2$$$V2.0; SMILES CCCC[C@@H]1NC(=O)[C@@H]2CCCN2C(=O)[C@H]2CCCN2C(=O)[C@H](Cc2ccccc2Cl)NC(=O)[C@@H]2CSSC[C@H](NC1=O)C(=O)N[C@@H]([C@@H](C)O)C(=O)N[C@@H](C)C(=O)N[C@@H](CO)C(=O)N[C@@H]([C@@H](C)CC)C(=O)N1CCC[C@H]1C(=O)N1CCC[C@H]1C(=O)N[C@@H](CCC(N)=O)C(=O)N2, also called Ex. 96) [Example 96]	0%	0%			0%	
XCTASIPPQCY (HELM PEPTIDE1{[Nle].C.T.A.S.I.P.P.Q.C.Y.[dP].P}$PEPTIDE1,PEPTIDE1,2:R3-10:R3|PEPTIDE1,PEPTIDE1,1:R1-13:R2$$$V2.0; SMILES CCCC[C@@H]1NC(=O)[C@@H]2CCCN2C(=O)[C@H]2CCCN2C(=O)[C@H](Cc2ccc(O)cc2)NC(=O)[C@@H]2CSSC[C@H](NC1=O)C(=O)N[C@@H]([C@@H](C)O)C(=O)N[C@@H](C)C(=O)N[C@@H](CO)C(=O)N[C@@H]([C@@H](C)CC)C(=O)N1CCC[C@H]1C(=O)N1CCC[C@H]1C(=O)N[C@@H](CCC(N)=O)C(=O)N2) [Example 179]					0%	76%
XCTASIPPQCY (HELM PEPTIDE1{[O=C([C@H](CCc1ccccc1)N[*:1])[*:2]].C.T.A.S.I.P.P.Q.C.Y.[dP].P}$PEPTIDE1,PEPTIDE1,2:R3-10:R3|PEPTIDE1,PEPTIDE1,1:R1-13:R2$$$V2.0; SMILES CC[C@H](C)[C@@H]1NC(=O)[C@H](CO)NC(=O)[C@H](C)NC(=O)[C@H]([C@@H](C)O)NC(=O)[C@@H]2CSSC[C@H](NC(=O)[C@H](CCC(N)=O)NC(=O)[C@@H]3CCCN3C(=O)[C@@H]3CCCN3C1=O)C(=O)N[C@@H](Cc1ccc(O)cc1)C(=O)N1CCC[C@@H]1C(=O)N1CCC[C@H]1C(=O)N[C@@H](CCc1ccccc1)C(=O)N2) [Example 103]	0%			10.2%		
XCTASIPPQCY (HELM PEPTIDE1{[Nle].C.T.A.S.I.P.P.Q.C.Y.[dP].D}$PEPTIDE1,PEPTIDE1,2:R3-10:R3|PEPTIDE1,PEPTIDE1,1:R1-13:R2$$$V2.0; SMILES CCCC[C@@H]1NC(=O)[C@H](CC(=O)O)NC(=O)[C@H]2CCCN2C(=O)[C@H](Cc2ccc(O)cc2)NC(=O)[C@@H]2CSSC[C@H](NC1=O)C(=O)N[C@@H]([C@@H](C)O)C(=O)N[C@@H](C)C(=O)N[C@@H](CO)C(=O)N[C@@H]([C@@H](C)CC)C(=O)N1CCC[C@H]1C(=O)N1CCC[C@H]1C(=O)N[C@@H](CCC(N)=O)C(=O)N2) [Example 121]			12.8%	0%		
